In IntAct's records for PubMed 22000412:

What follows are substances tested against bub1b_human BUB1B (UniProt O60566).
Chain of bub1b_human BUB1B (O60566 whole entry): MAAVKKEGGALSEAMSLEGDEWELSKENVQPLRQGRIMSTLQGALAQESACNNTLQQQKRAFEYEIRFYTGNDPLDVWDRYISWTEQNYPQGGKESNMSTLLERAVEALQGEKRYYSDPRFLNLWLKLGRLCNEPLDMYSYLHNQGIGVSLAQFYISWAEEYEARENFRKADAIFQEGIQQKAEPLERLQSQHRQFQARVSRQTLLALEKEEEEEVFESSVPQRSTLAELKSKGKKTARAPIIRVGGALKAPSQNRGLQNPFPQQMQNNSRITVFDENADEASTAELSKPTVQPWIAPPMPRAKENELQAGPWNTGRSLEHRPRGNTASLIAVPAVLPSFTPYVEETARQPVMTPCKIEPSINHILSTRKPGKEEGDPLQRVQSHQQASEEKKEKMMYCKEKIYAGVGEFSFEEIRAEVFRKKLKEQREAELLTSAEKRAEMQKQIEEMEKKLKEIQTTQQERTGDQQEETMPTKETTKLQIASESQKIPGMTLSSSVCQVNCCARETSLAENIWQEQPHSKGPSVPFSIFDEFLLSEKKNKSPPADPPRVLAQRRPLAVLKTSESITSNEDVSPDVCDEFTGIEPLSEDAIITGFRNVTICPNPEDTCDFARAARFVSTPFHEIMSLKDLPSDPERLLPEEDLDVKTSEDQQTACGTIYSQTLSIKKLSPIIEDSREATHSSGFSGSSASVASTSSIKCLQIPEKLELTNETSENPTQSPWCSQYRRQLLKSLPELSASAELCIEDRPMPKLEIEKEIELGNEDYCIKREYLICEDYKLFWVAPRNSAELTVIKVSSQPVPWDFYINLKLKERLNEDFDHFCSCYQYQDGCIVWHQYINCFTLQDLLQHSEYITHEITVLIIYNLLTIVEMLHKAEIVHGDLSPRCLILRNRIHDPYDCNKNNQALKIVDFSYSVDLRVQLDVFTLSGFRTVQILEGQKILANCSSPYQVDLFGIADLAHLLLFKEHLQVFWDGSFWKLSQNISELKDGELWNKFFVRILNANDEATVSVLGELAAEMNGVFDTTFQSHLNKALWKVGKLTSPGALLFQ

effect of a mutation on the interaction	Substance
disrupting interaction	Outer kinetochore KNL1 complex subunit KNL1 (Homo sapiens), Q8NG31-2 F215A;F218A
disrupting interaction	Outer kinetochore KNL1 complex subunit KNL1 (Homo sapiens), Q8NG31-2 F215A;I219A
disrupting interaction	Outer kinetochore KNL1 complex subunit KNL1 (Homo sapiens), Q8NG31-2 I213A;F215A;F218A
